{"source": "paper doi:10.1101/2025.09.11.675134", "about": "“Biodistribution-Driven Discovery Identifies a Glycosidase-Cleavable Linker to Reprogram Radiotheranostics” (bioRxiv, 2025)", "system": "AR42J xenografts", "assay": "PET/CT quantification of 86Y-labeled variants in AR42J xenograft mice", "assay_type": "in vivo", "settings": "PET SUVmax, 24 h post-injection", "data": [{"smiles": "C[C@@H](O)[C@H](NC(=O)[C@@H]1CSSC[C@H](NC(=O)[C@@H](Cc2ccccc2)NC(=O)CCCC(=O)Nc2cc(COC(=O)N(C)CCNC(=O)CN3CCN(CC(=O)O)CCN(CC(=O)O)CCN(CC(=O)O)CC3)ccc2O[C@@H]2O[C@H](CO)[C@H](O)[C@H](O)[C@H]2O)C(=O)N[C@@H](Cc2ccc(O)cc2)C(=O)N[C@H](Cc2c[nH]c3ccccc23)C(=O)N[C@@H](CCCCN)C(=O)N[C@@H]([C@@H](C)O)C(=O)N1)C(=O)O", "note": "[^86Y-DOTA-β-Gal-TATE, metal not drawn]", "values": [{"measurement": "T/K ratio higher than that of 86Y-DOTA-MVK(ε)-TATE", "value": "approximately 2.7 fold"}, {"measurement": "T/K ratio higher than that of 86Y-DOTA-TATE", "value": "over 10 fold"}]}]}
